PMC3726423
Blank lines part the entries; values can stand above or below the substance they belong to.

Key:
aCBF5 = assay: EMSA; details: EMSA: 150 mM KCl, 1.5 mM MgCl2, 0.2 mM EDTA, 20 mM HEPES pH 7.9, 65 C 10 min, 50 fmol sRNA, 200 nM proteins (Kd: 50-400 nM aCBF5); fluorescence: 300 mM NaCl …
aNOP10 (P. abyssi) = aNOP10 (P. abyssi) (UniProt Q9V0E3)
[1] = molecular target: aNOP10 Y41A/Y44A (P. abyssi) (UniProt Q9V0E3)
[2] = molecular target: aCBF5;aNOP10;L7Ae H70A/L74A/E77A (HLE) H65A;L69A;E72A (Pyrococcus abyssi;Pyrococcus abyssi) (UniProt P62008); assay: EMSA; details: radiolabeled substrate, excess unlabeled sRNP; EMSA: 150 mM KCl, 1.5 mM MgCl2, 0.2 mM EDTA, 20 mM HEPES pH 7.9, 65 C 10 min, 50 fmol sRNA, 200 nM proteins (Kd: 50-400 nM aCBF5); fluorescence: 300 mM NaCl …
[3] = molecular target: aCBF5;aNOP10 Y41A/Y44A (Y);L7Ae (Pyrococcus abyssi;Pyrococcus abyssi) (UniProt P62008); assay: EMSA; details: radiolabeled substrate, excess unlabeled sRNP; EMSA: 150 mM KCl, 1.5 mM MgCl2, 0.2 mM EDTA, 20 mM HEPES pH 7.9, 65 C 10 min, 50 fmol sRNA, 200 nM proteins (Kd: 50-400 nM aCBF5); fluorescence: 300 mM NaCl …

aNOP10 (P. abyssi), sequence (Q9V0E3 whole entry): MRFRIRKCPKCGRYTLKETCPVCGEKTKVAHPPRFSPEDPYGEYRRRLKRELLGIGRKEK
aNOP10 Y41A/Y44A (P. abyssi), sequence (Q9V0E3 whole entry Y41A/Y44A): as the sequence (Q9V0E3 whole entry) above, with Y41A, Y44A counted along it

Substance: GGGGAUCCCCUCCCCUCCCGCCCUCUCCGGGGAAUCGUGAACCGGGGGUUCCGGGGGAGGGGACAGU [Pab21P191 chimera]
Kd (aCBF5): 200 nM

Substance: GGGGAUGGGCCCGGCUCCCGCCCUCUCCGGGGAAUCGUGAACCGGGGGUUCCGGCCGGGCCUACAGU [Pab21 H/ACA sRNA]
Kd (aCBF5): 125 nM

Substance: GGGUAAUGGGGCCCGGCUCUCACACCUCCGGGAUCAGUGACCGGAGGGCGGUCGCCGGGCCUACACCU [Pab91P121 chimera]
Kd (aCBF5): 200 nM

δ(Δε): decrease of the RNA CD signal at λmax on addition of L7Ae to the aCBF5-aNOP10-Pab21 complex (M^−1.cm^−1 per nt) (aNOP10 (P. abyssi)): -1.21
δ(Δε): decrease of the RNA CD signal at λmax on addition of wild-type L7Ae to the aCBF5-aNOP10(Y41A/Y44A)-Pab21 complex (M^−1.cm^−1 per nt) [1]: -0.82
Substance: L7Ae (from UniProt P62008 1-123) (natural protein)

δ(Δε): decrease of the RNA CD signal at λmax on addition of L7Ae H70A/L74A/E77A to the wild-type aCBF5-aNOP10-Pab21 complex (M^−1.cm^−1 per nt) (aNOP10 (P. abyssi)): -0.825
Substance: L7Ae triple mutant H70A/L74A/E77A (from UniProt P62008 1-123) (natural protein)

Substance: Pab21 guide + substrate RNA
binding signal (fold decrease of CII') [2]: 2
binding signal (fold decrease of CII') [3]: 2
